Experimental data published in patent US20220251236A1 (Boehringer Ingelheim, published 2022).

T1: EGF6+MEMBRANE PROXIMAL PEPTIDE
T1 construct: also called Hu DLL3 EGF6+membrane proximal peptide on HEK293 cells
T1 membrane-anchored DLL3 subdomain construct: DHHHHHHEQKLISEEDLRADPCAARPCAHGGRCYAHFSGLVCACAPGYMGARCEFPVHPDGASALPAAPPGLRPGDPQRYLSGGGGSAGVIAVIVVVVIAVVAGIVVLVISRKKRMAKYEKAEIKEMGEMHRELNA

T2: EGF2+3
T2 construct: also called Hu DLL3 EGF2+3 on HEK293 cells
T2 membrane-anchored DLL3 subdomain construct: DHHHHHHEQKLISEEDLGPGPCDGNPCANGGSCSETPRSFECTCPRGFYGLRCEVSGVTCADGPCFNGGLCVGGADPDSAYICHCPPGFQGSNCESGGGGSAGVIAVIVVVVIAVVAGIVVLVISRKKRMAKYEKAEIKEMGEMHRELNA

T3: EGF4+5
T3 construct: also called Hu DLL3 EGF4+5 on HEK293 cells
T3 membrane-anchored DLL3 subdomain construct: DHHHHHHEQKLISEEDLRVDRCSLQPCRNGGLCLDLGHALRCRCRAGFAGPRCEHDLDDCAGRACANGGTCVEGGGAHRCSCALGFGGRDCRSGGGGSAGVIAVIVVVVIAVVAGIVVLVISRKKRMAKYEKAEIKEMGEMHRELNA

T4: EGF5+6
T4 construct: also called Hu DLL3 EGF5+6 on HEK293 cells
T4 membrane-anchored DLL3 subdomain construct: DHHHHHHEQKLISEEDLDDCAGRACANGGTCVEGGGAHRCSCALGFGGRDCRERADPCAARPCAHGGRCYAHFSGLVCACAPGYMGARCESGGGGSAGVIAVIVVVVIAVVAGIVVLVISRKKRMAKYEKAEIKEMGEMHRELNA

T5: EGF3+4
T5 construct: also called Hu DLL3 EGF3+4 on HEK293 cells
T5 membrane-anchored DLL3 subdomain construct: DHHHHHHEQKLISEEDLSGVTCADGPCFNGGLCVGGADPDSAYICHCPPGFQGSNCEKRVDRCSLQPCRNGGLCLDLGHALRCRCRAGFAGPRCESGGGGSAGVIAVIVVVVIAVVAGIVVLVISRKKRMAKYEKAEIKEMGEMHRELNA

T6: EGF1+2
T6 construct: also called Hu DLL3 EGF1+2 on HEK293 cells
T6 membrane-anchored DLL3 subdomain construct: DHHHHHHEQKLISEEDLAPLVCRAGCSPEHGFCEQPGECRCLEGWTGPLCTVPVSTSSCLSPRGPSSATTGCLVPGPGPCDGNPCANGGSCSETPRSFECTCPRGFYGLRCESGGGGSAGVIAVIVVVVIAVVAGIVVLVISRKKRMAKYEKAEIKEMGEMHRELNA

T7: Human DLL3-His (human, UniProt Q9NYJ7 27-492)
T7 construct: also called huDLL3-His; hu DLL3
T7 sequence: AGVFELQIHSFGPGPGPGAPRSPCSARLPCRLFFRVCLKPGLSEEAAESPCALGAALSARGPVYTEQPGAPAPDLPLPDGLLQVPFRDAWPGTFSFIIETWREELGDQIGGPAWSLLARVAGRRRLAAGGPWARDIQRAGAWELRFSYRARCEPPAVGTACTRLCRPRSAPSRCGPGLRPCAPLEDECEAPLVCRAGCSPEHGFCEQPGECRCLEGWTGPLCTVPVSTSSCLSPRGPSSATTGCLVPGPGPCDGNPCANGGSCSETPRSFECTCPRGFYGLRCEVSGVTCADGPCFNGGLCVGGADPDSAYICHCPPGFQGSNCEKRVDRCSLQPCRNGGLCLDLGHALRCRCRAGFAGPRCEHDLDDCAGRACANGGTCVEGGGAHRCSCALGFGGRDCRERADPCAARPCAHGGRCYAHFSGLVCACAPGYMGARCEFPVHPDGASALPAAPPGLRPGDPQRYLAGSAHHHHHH


Assays:
[1] = biological target: T8, trypsin inhibitor from glycine max soybean (Glycine max (soybean)); assay: SPR (Biacore T200), trypsin inhibitor on CM5 chip, sample at 1 µM
T8 construct: also called Tryp
Description: To prepare the surface for the non-specific binding experiment, chicken egg white lysozyme and trypsin inhibitor from glycine max soybean were coupled manually to a series S CM5 chip with the surface density of 3000-5000 RU using the amine coupling kit according to the manufacture instructions.

[2] = biological target: T1, EGF6+MEMBRANE PROXIMAL PEPTIDE; assay: flow cytometry on HEK293 cells expressing the DLL3 subdomain construct, PE anti-human secondary, control: secondary antibody only
Method: (§1) DLL3/CD3 binding proteins were produced by transient transfection of CHO-E cells with the pTT5 vectors carrying the chain-encoding genes, as described in Example 2. […] Bound molecules were detected with PE-conjugated anti-human secondary antibody (Sigma-Aldrich, #P8047). As negative control, cells were incubated with secondary antibody only.
(§2) The samples were measured by flow-cytometry. […] The sequences of the epitope domains are listed in Example 5, Table 3.

EGF2+3 = biological target: T2, EGF2+3; assay: as above
Method: as §1, §2

EGF4+5 = biological target: T3, EGF4+5; assay: as above
Method: as §1, §2

EGF5+6 = biological target: T4, EGF5+6; assay: as above
Method: as §1, §2

EGF3+4 = biological target: T5, EGF3+4; assay: as above
Method: as §1, §2

EGF1+2 = biological target: T6, EGF1+2; assay: as above
Method: as §1, §2

Human CD3 E+G HuFc-6xHis = biological target: T9, Human CD3 E+G HuFc-6xHis (human); assay: SPR (ProteOn XPR36), HuCD3E_HuCD3G-Fc amine-coupled, bispecific as analyte, Example 4B
T9 construct: also called hu CD3εγ-Fc
Method: (§3) The binding affinity of purified DLL3/CD3 bispecific constructs for recombinant human DLL3-ECD and Fc-fusion protein of human CD3 εγ subunits was determined by Surface Plasmon Resonance (SPR), using a ProteOn XPR36 instrument (Bio-Rad).
For binding kinetic determination to CD3, HuCD3E_HuCD3G-Fc (dissolved in pH 4.5 acetate) was immobilized directly onto the sensor surface through amine coupling for 360 sec at a flowrate of 30 μl/min vertically. The baseline was stabilized by injecting PBS-T-EDTA for 60 sec at a flowrate of 30 μl/min horizontally. The analytes (all anti-DLL3/CD3 molecules) were injected horizontally over the captured antibody for 600 sec at a flowrate of 30 μl/min and a dissociation for 1800 sec.

Human DLL3-His = biological target: T7, Human DLL3-His; assay: SPR (ProteOn XPR36), bispecific captured on protein A/G, hu DLL3 as analyte, Example 4B
Method: as §3
For binding kinetic determination to DLL3, anti-DLL3/CD3 molecules were captured individually on the protein A/G surface vertically for 200 sec at a flowrate of 30 μl/min. The baseline was stabilized by injecting PBS-T-EDTA for 60 sec at a flowrate of 30 μl/min horizontally. The analyte (hu DLL3) was injected horizontally over the captured antibody for 300 sec at a flowrate of 30 μl/min and a dissociation for 1800 sec.

T8 sequence (P01070 25-205): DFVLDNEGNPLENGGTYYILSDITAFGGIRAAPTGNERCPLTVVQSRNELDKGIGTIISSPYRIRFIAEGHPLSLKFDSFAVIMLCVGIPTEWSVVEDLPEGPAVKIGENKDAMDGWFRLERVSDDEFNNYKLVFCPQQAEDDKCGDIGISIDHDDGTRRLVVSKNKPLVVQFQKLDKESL
T9 sequence (chain, as listed by the source limits assumed): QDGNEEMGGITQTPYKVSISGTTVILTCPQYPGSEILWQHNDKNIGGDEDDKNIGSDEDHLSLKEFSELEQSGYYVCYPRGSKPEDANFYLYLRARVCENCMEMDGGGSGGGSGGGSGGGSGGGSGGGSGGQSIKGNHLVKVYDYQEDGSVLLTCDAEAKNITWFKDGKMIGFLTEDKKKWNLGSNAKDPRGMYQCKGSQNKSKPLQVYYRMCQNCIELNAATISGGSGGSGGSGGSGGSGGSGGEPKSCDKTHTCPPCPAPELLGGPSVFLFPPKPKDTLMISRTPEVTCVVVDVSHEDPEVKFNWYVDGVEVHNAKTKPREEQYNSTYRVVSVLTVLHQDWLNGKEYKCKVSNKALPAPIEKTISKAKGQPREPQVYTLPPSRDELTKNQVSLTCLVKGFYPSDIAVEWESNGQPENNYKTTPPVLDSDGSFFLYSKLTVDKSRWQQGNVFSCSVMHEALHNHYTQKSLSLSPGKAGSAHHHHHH

| Binder | Non-specific binding (RU) [1] | binding result [2] | binding result (EGF2+3) | binding result (EGF4+5) | binding result (EGF5+6) | binding result (EGF3+4) | binding result (EGF1+2) | Kd (Human CD3 E+G HuFc-6xHis) | Kd (Human DLL3-His) |
| --- | --- | --- | --- | --- | --- | --- | --- | --- | --- |
| DLL3#14/CD3#1 (bispecific antibody, human IgG1, kappa, lambda, L234A L235A, Heterodimer of one DLL3 chain and one CD3 chain (scFab-Fc, knob-in-hole)) chain 1: not shown chain 2: EAVVTQEPSLTVSPGGTVTLTCRSSTGAVTTSNYANWVQEKPGQLPRGLIGGTNKRAPWVPARFSGSLLGGKAALTLSGAQPEDEAEYFCALWYSNLWVFGGGTKLTVLGQPKAAPSVTLFPPSSEELQANKATLVCLISDFYPGAVKVAWKADGSPVNTGVETTTPSKQSNNKYAASSYLSLTPEQWKSHRSYSCQVTHEGSTVEKTVAPAECSGGGGSEGKSSGSGSESKSTEGKSSGSGSESKSTGGGGSEVQLVESGGGLVQPGGSLKLSCAASGFTFNTYAMNWVRQAPGKGLEWVARIRSKYNNYATYYADSVKDRFTISRDDSKNTAYLQMNNLKTEDTAVYYCVRHGNFGNSYVSWFAYWGQGTLVTVSAASTKGPSVFPLAPSSKSTSGGTAALGCLVKDYFPEPVTVSWNSGALTSGVHTFPAVLQSSGLYSLSSVVTVPSSSLGTQTYICNVNHKPSNTKVDKRVEPKSCDKTHTCPPCPAPEAAGGPSVFLFPPKPKDTLMISRTPEVTCVVVDVSHEDPEVKFNWYVDGVEVHNAKTKPREEQYNSTYRVVSVLTVLHQDWLNGKEYKCKVSNKALPAPIEKTISKAKGQPREPQVYTLPPSREEMTKNQVSLSCAVKGFYPSDIAVEWESNGQPENNYKTTPPVLDSDGSFFLVSKLTVDKSRWQQGNVFSCSVMHEALHNRFTQKSLSLSPG | 6 RU | no binding (tested: 1.6 nM) | no binding (tested: 1.6 nM) | no binding (tested: 1.6 nM) | no binding (tested: 1.6 nM) | no binding (tested: 1.6 nM) | no binding (tested: 1.6 nM) | 3 nM | 0.06 nM |
| DLL3#16/CD3#1 (bispecific antibody, human IgG1, kappa, lambda, L234A L235A, Heterodimer of one DLL3 chain and one CD3 chain (scFab-Fc, knob-in-hole)) chain 1: DIQMTQSPSTLSASVGDRVTITCRASQSVSDWLAWYQQKPGKAPKFLIYRASSLESGVPSRFSGSGSGTEFTLTISSLQPADFATYYCQLYNSYSPTFGQGTKVEIKRTVAAPSVFIFPPSDEQLKSGTASVVCLLNNFYPREAKVQWKVDNALQSGNSQESVTEQDSKDSTYSLSSTLTLSKADYEKHKVYACEVTHQGLSSPVTKSFNRGECGGGGSEGKSSGSGSESKSTEGKSSGSGSESKSTGGGGSEVHLVESGGGLVQPGGSLRLSCAASGFTFSSYWMTWVRQAPGKGLEWVANIKEDGSEKYYVDSVKGRFTISRDNAKNSLYLQMNSLRAEDTALYYCARDWGYFDYWGQGTLVTVSSASTKGPSVFPLAPSSKSTSGGTAALGCLVKDYFPEPVTVSWNSGALTSGVHTFPAVLQSSGLYSLSSVVTVPSSSLGTQTYICNVNHKPSNTKVDKRVEPKSCDKTHTCPPCPAPEAAGGPSVFLFPPKPKDTLMISRTPEVTCVVVDVSHEDPEVKFNWYVDGVEVHNAKTKPREEQYNSTYRVVSVLTVLHQDWLNGKEYKCKVSNKALPAPIEKTISKAKGQPREPQVYTLPPSREEMTKNQVSLWCLVKGFYPSDIAVEWESNGQPENNYKTTPPVLDSDGSFFLYSKLTVDKSRWQQGNVFSCSVMHEALHNHYTQKSLSLSPG chain 2: EAVVTQEPSLTVSPGGTVTLTCRSSTGAVTTSNYANWVQEKPGQLPRGLIGGTNKRAPWVPARFSGSLLGGKAALTLSGAQPEDEAEYFCALWYSNLWVFGGGTKLTVLGQPKAAPSVTLFPPSSEELQANKATLVCLISDFYPGAVKVAWKADGSPVNTGVETTTPSKQSNNKYAASSYLSLTPEQWKSHRSYSCQVTHEGSTVEKTVAPAECSGGGGSEGKSSGSGSESKSTEGKSSGSGSESKSTGGGGSEVQLVESGGGLVQPGGSLKLSCAASGFTFNTYAMNWVRQAPGKGLEWVARIRSKYNNYATYYADSVKDRFTISRDDSKNTAYLQMNNLKTEDTAVYYCVRHGNFGNSYVSWFAYWGQGTLVTVSAASTKGPSVFPLAPSSKSTSGGTAALGCLVKDYFPEPVTVSWNSGALTSGVHTFPAVLQSSGLYSLSSVVTVPSSSLGTQTYICNVNHKPSNTKVDKRVEPKSCDKTHTCPPCPAPEAAGGPSVFLFPPKPKDTLMISRTPEVTCVVVDVSHEDPEVKFNWYVDGVEVHNAKTKPREEQYNSTYRVVSVLTVLHQDWLNGKEYKCKVSNKALPAPIEKTISKAKGQPREPQVYTLPPSREEMTKNQVSLSCAVKGFYPSDIAVEWESNGQPENNYKTTPPVLDSDGSFFLVSKLTVDKSRWQQGNVFSCSVMHEALHNRFTQKSLSLSPG | 0 RU | no binding (tested: 1.6 nM) | no binding (tested: 1.6 nM) | no binding (tested: 1.6 nM) | no binding (tested: 1.6 nM) | no binding (tested: 1.6 nM) | no binding (tested: 1.6 nM) | 2 nM | 0.228 nM |
